Test [1] concerns the target rabbit skeletal muscle filamentous actin (rabbit) (UniProt P68135).
Test [2] has the same target. The source holds these as a separate data set.

On to “jordan (p.D1647G) MYO15A motor domain complex M15-2IQ:ELC:RLC (1:1:1) (from UniProt P60661 1-151)”, for which, in test [1], the K ATPase: F-actin at half-maximal activation of the steady-state ATPase (NADH-coupled assay, 20 °C, 2 mM MgATP, 50 mM KCl) was 114 µM and the kcat: extrapolated maximum rate of the F-actin activated steady-state ATPase (NADH-coupled assay, 20 °C) was 0.87 s⁻¹. The substance further yielded a velocity of actin filaments in the in vitro gliding filament assay (motor domain held by anti-GFP, 10 mM KCl, 2 mM ATP, 30 °C) in test [2] of 216 nm/s.

In the case of “wild-type MYO15A motor domain complex M15-2IQ:ELC:RLC (1:1:1) (from UniProt P60661 1-151)”, in test [1], the K ATPase: F-actin at half-maximal activation of the steady-state ATPase (NADH-coupled assay, 20 °C, 2 mM MgATP, 50 mM KCl) amounted to 29.1 µM and the kcat: extrapolated maximum rate of the F-actin activated steady-state ATPase (NADH-coupled assay, 20 °C) is 5.8 s⁻¹. In addition, the velocity of actin filaments in the in vitro gliding filament assay (motor domain held by anti-GFP, 10 mM KCl, 2 mM ATP, 30 °C) in test [2] stood at 473 nm/s.

Source of the values: publication PMC11754657.
